Reference: article PMC4339652 (2015)

Molecular target: T1, G3p N1 (Filamentous phage, UniProt O80297)
T1 chain: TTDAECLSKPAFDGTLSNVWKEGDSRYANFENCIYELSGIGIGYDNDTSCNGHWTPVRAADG
Assay: SPR

B1: TolA TolAIII (protein)
chain: GGGAKGNNASPAGSGNTKNNGASGADINNYAGQIKSAIESKFYDASSYAGKTCTLRIKLAPDGMLLDIKPEGGDPALCQAALAAAKLAKIPKPPSQAVYEVFKNAPLDFKP
Kd: 14.9 µM
